Test results taken from paper PMC8136826.

Molecular target: Cas12a ΔBH (Francisella novicida, UniProt A0Q7Q2 1-1300, del953-969)
Assay: EMSA

B1: crRNA + dsDNA target (58 nt, TS/NTS) (mixed)
RNA: UAAUUUCUACUGUUGUAGAUGUGAUAAGUGGAAUGCCAUGUGGG
DNA 1: ACTCAATTTTGACAGCCCACATGGCATTCCACTTATCACTAAAGGCATCCTTCCACGT
DNA 2: ACGTGGAAGGATGCCTTTAGTGATAAGTGGAATGCCATGTGGGCTGTCAAAATTGAGT
  binding result: binds
